From patent US20230242624A1 (NEURIMMUNE, published 2023) come the findings set out here.

The labels stand for the following.
T1: MERS-CoV Spike protein fragment (RBD, aa 367-606, His tag) (MERS-CoV, UniProt K9N5Q8 367-606)
T1 sequence: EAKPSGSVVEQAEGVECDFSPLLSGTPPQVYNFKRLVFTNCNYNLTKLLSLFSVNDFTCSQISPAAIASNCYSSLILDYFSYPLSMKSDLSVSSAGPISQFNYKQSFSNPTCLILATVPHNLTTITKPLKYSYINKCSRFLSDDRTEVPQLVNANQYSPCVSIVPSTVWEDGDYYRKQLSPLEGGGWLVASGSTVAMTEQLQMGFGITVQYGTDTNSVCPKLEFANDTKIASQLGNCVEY

B1: NI-607.649_B11 (antibody, V domains shown)
VH: QVQLVQSGAEVKKPGSSVKVSCKASGGTFSNYAISWVRQAPGQGLEWMGGIIPIFGTANYAQKFQGRVTITADESTSTAYMELSSLRSEDTAVYYCAGDRWYYDSSGYPTPDEYFQHWGQGTQVTVSS
VL: QSVLTQPPSVSGAPGQRVTISCTGSSSNIGAGYDVHWYQQLPGTAPKLLIYGNSNRPSGVPDRFSGSKSGTSASLAITGLQAEDEADYYCQSYDSSLSGVVFGGGTKLTVL
B2: NI-607.531_C8 (antibody, V domains shown)
VH: EVQLVESGGGVVQPGRSLRLSCTASGFTFSFYSVHWVRQAPGKGLEWVAVISYDGSTKYYADSVKGRFTISRDNSKNTLYLQMDSLRTEDTAVYYCASPPISPIPAAGTPLAYWGQGTLVTVSS
VL: not shown
B3: NI-607.532_D3 (antibody, V domains shown)
VH: EVQLVQSGAEVKRPGASVKVSCKASGYHFTDYYIHWVRQAPGQGLEWMGWINPNSGGTNYAQKFQGRVTMTRDTSISTAYMELSRLRSDDTAVYYCARVYYYDSSSSADYWGQGTLVTVSS
VL: not shown
B4: NI-607.427_C5 (antibody, V domains shown)
VH: QVQLVQSGAEVKKPGASVKVSCKASGYTFTSYGISWVRQAPGQGLEWMGWISAYNGNTNYAQKLQGRVTMTTDTSTSTAYMELRSLRSDDTAVYYCARDNRAGWDQLDYWGQGTLVTVSS
VL: not shown
B5: NI-607.429_E4 (antibody, V domains shown)
VH: QVQLVESGGGLVQPGGSLRLSCAASGFTVSSNYMSWVRQAPGKGLEWVSVIYSGGSTFYADSVKGRFTISRDNSKNTLYLQMNSLRAEDTAVYYCARDLQESGMDVWGQGTTVTVSS
VL: DIQLTQSPSSVSASVGDRVTITCRASQGISSWLAWYQQKPGKAPKLLIYAASSLQSGVPSRFSGSGSGTDFTLTISSLQPEDFATYYCQQANSFPTFGQGTRLEIK
B6: NI-607.532_C11 (antibody, V domains shown)
VH: B5 VH with V12I, F58Y, Y79F, E101Y, S102Y
VL: DIQMTQSPSFLSASVGDRVTITCRASQGISSYLAWYQQKPGKAPKLLIYAASTLQSGVPSRFSGSGSGTEFTLTISSLQPEDFATYYCQQLDSYPPRDTFGQGTKVEIK
B7: NI-607.532_F9 (antibody, V domains shown)
VH: EVQLVESGGNLIQPGGSLRLSCAASGFTVSSNYMSWVRQAPGKGLEWVSVIYSGGSTYYADSVKGRFTISRDNSRNTLYLQMNSLRAEDTAVYFCARDRVVRGVRGNGMDVWGQGTTVTVSS
VL: AIRMTQSPSSLSASVGDRVTITCQASQDINIYLNWYQQRPGKAPKLLIYDASNLETGVPSRFSGSGSGTDFTFTISSLQPEDIATYYCHQYDNLPRTFGQGTKVDIK
B8: NI-607.529_B9 (antibody, V domains shown)
VH: QVQLQESGPGLVKPSETLSLTCTVSGGSISSSSYYWGWIRQPPGKGLEWIGNIYYSGSTYYNPSLKSRVTISVDTSKNQFSLKLNSVTAADTAVYFCARLLWLRGSYYWGQGTLVTVSS
VL: SYELTQPHSVSESPGKTVTISCTGSSGSIASNYVQWYQQRPGSAPTTVIYEDNQRPSGVPDRFSGSIDSSSNSASLTISGLKTEDEADYYCQSYDSSNWVFGGGTKLTVL
B9: NI-607.532_D3 IgG4 (antibody, V domains shown)
VH: B3 VH
VL: not shown
B10: NI-607.429_E4 IgG4 (antibody, V domains shown)
VH: B5 VH
VL: B5 VL

Where a chain is given by its changes, count along the chain named. Values joined by “and” are separate entries in the source; they are usually repeats but may differ in a detail not shown here. Equal entries are not always repeated.

One assay deals with T2, SARS-CoV-2-S1 (RBD)-His protein (Trenzyme) (SARS-CoV-2, UniProt P0DTC2 319-541).
Experiment: not given
For the molecule B1, the “IC50 (read off the curve)” value is about 0.04 µg/mL.
For the molecule B2, the “IC50 (read off the curve)” value was about 0.03 µg/mL.

Another assay addresses T2, SARS-CoV-2-S1 (RBD)-His protein ….
Experiment: not given
The source holds these as a separate data set.
One may read the EC50 (read off the curve) as the midpoint of the concentration-response curve. Read a high EC50 (read off the curve) as lower potency in that assay. In the case of B1, the half-maximal effective concentration (EC50 (read off the curve)) was about 4 nM.

In another assay the target is SARS-CoV-2 Spike Protein (S1+S2 ECD, His-Tag) (Sino 40589-V08B1) (SARS-CoV-2, UniProt P0DTC2 14-1213).
Experiment: not given
For B1, the concentration giving a half-maximal response (EC50 (read off the curve)) is about 0.5 nM.

A further assay concerns the target T2, SARS-CoV-2-S1 (RBD)-His protein ….
Experiment: not given
The source holds these as a separate data set.
A word on the EC50: it is the concentration needed to bring the measured effect to its halfway point. Turning to B1, the EC50 came out at 0.036 nM.

A further assay addresses SARS-CoV-2 Spike (S) protein on vesicular stomatitis virus (VSV) pseudoviruses (SARS-CoV-2, UniProt P0DTC2 14-1273). Nature of the assay: cell-based or functional assay.
B3: the “IC50, pseudovirus entry assay (luciferase, HEK 293T-ACE2 cells)” value (“IC50, pseudovirus entry assay” for short) stood at 2.1 µg/mL.
In the case of B1, the “IC50, pseudovirus entry assay” value is 232 ng/mL and 1.53 nM.
B4: the “IC50, pseudovirus entry assay” value is over 100 µg/mL.
Turning to B5, the “IC50, pseudovirus entry assay” value turned out to be 0.035 µg/mL.
Same read-out and setting: under B6 stands 0.0872 µg/mL; under B7, 0.364 µg/mL.
As for B2, the “IC50, pseudovirus entry assay” value is 86.4 ng/mL and 0.572 nM.
Consider B8, for which the “IC50, pseudovirus entry assay” value came to 1.9 µg/mL.

The target of another assay is T3, BSA (Sigma-Aldrich) (bovine, UniProt P02769 25-607).
T3 construct: also called bovine serum albumin; BSA control
Nature of the assay: direct ELISA on coated BSA. Background: An ELISA detects its analyte on a solid surface through an enzyme-linked reagent.
As to B3, the binding result was “no binding (tested: 400 nM)”.
Turning to B4, the binding result is reported as “no binding (tested: 400 nM)”.
On the same count and under the same terms, under B5 stands “no binding (tested: 400 nM)”; under B6, “no binding (tested: 400 nM)”; under B8, “no binding (tested: 400 nM)”.

A further assay has as its target T2, SARS-CoV-2-S1 (RBD)-His protein …. The experiment in a line: direct ELISA on coated RBD-His.
Turning to B1, the EC50 was about 0.021 nM.
For the molecule B2, the EC50 is about 0.017 nM.

A further assay has the same target. Nature of the assay: direct ELISA on coated RBD-His. This is another data set of the same source.
Take B3: the half-maximal effective concentration (EC50) amounted to 0.0049 nM.
Regarding B1, the concentration giving a half-maximal response (EC50) turned out to be 0.027 nM.
In turn, B4 returned a half-maximal effective concentration (EC50) of 0.014 nM.
Regarding B5, the concentration for a half-maximal effect (EC50) turned out to be 0.0086 nM.
For B6, the EC50 was 0.013 nM.
B7 came in with a concentration giving a half-maximal response (EC50) of 0.0025 nM.
B2 registered a concentration giving a half-maximal response (EC50) of 0.011 nM.
Take B8: the half-maximal effective concentration (EC50) was 0.034 nM.

The target is the same in the next assay. Nature of the assay: competition ELISA, RBD binding to coated ACE2.
In general, IC50 refers to the concentration that gives 50% inhibition. For the molecule B3, the IC50 is ~0.457 µg/mL and ~3 nM.
Turning to B9, the IC50 is ~0.457 µg/mL and ~3 nM.
Still for that read-out and setting: to B4 belongs ~2.15 µg/mL and ~14.3 nM.
As for B5, the IC50 is ~0.345 µg/mL and ~2.3 nM.
For B10, the IC50 is ~0.699 µg/mL and ~4.65 nM.
B6: the IC50 was ~1.12 µg/mL and ~7.44 nM.
Consider B7, for which the concentration for half-maximal inhibition (IC50) was ~0.668 µg/mL and ~4.4 nM.

The target is the same in a further assay. Nature of the assay: iQue flow cytometry, antigen-coated beads.
B3: the EC50 is 1 nM.
As for B1, the response was half-maximal at 1.4 nM (EC50).
B4 showed an EC50 of 3.2 nM.
For B5, the midpoint of the response, the EC50, lay at 1.9 nM.
For B6, the EC50 was 2.4 nM.
In turn, B7 showed an EC50 of 3.3 nM.
B2: the EC50 is 1.2 nM.
In turn, B8 had an EC50 of 1 nM.

In the next assay the target is recombinant SARS-CoV Spike protein (RBD, His tag) (SARS-CoV, UniProt P59594 306-527). Nature of the assay: iQue flow cytometry, antigen-coated beads.
Regarding B3, the EC50 was found to be 1000 nM.
Still for that read-out and setting: under B1 stands 1.7 nM.
As for B4, the EC50 is 3 nM.
For B7, the EC50 stood at 1000 nM.
On to B2, for which the EC50 worked out at 1000 nM.
Regarding B8, the EC50 amounted to 20 nM.

A further assay concerns the target T1, MERS-CoV Spike protein fragment (RBD, …). The experiment in a line: iQue flow cytometry, antigen-coated beads.
For B3, the EC50 is 1000 nM.
Take B1: a half-maximal effect (EC50) was put at 1000 nM.
Molecule B4 came in with an EC50 of 600 nM.
Still for that read-out and setting: under B5 stands 200 nM; under B6, 1000 nM.
Same read-out and setting: under B7 stands 1000 nM.
Same read-out and setting: under B2 stands 1000 nM.
For B8, a half-maximal effect (EC50) was put at 300 nM.

The next assay addresses T2, SARS-CoV-2-S1 (RBD)-His protein …. The experiment in a line: direct ELISA on coated RBD-His (FIG. 1C); IgG1.
B1: the EC50 is about 0.013 nM.

A further assay shares this target. Nature of the assay: competition ELISA, RBD binding to coated ACE2. This is another data set of the same source.
Molecule B3 had a 50% inhibitory concentration (IC50) of 0.917 nM.
For B1, the IC50 was 0.08 nM.
Molecule B4 gave an IC50 of 2.88 nM.
B5 showed an IC50 of 0.275 nM.
On the same count and under the same terms, under B6 stands 0.826 nM.
In turn, B7 showed an IC50 of 0.775 nM.
Same read-out and setting: under B2 stands 0.153 nM; under B8, 0.116 nM.

For a further assay the target is unchanged. The experiment in a line: competition ELISA, RBD binding to coated ACE2; IgG1.
In turn, B1 had an IC50 of about 0.052 µg/mL.
Molecule B2 registered an IC50 of about 0.132 µg/mL.
